In patent US20240026407A1, “MODIFICATION OF SAPONINS” (GLAXOSMITHKLINE BIOLOGICALS SA, priority 2020, published 2024):

B1: 1025 (protein, listed as Bacteroides xylanisolvens)
chain: MKKDYMKYQQNSKREEKSKFITNQLTNMAHISIRSYLYLLGTTLFSCAPQELKTPFELKCENIPVPVGVDTQTPRLSWKLPLLEEDSINRVEIWLSTDSTQLSGRQSGYWNKSIIGAPIRVSYDGQPLDSYTTYYWKIGYQTSSKQKTTFSPISSFTTGCLSPDNWKGKWITDKHDITYRPAPYYRKSFQLDKTIEQALLTIASAGLHELSVNGQRAGNHFLDPMYTHFDKRILSVTHDVTSLLSLGENVIGVQLGNGWYNHQSTAVWFFDKASWRNRPKFTAQLHLRYTDGTTEYLGTDSTWQTTDSPVIFNSIYTAEHYDAQKELAGWDSPGFNATGWYHAQETESPTETIKSQVMHPIRETARYTATQCKKINDSCYVYHFPKNIAGVTELKVKGKKGTKLRLKHGELLDKNGMVNMANIDYHYRPTDDSDPFQTDIVILSGKQDRFMPKFNYKGFQFVEVSSSAPIQLSDENLIAVEMHSDIPAIGYWSSSSDLLNKIWKATNSSYLANLFGYPTDCPQREKNGWTGDAHITIETGLYNFDGISIYEKWMNDFCDEQKDNGILPCIIPTSVWGYDWANGVDWTSAVAIIPWEIYRFYGDTTLLRRMYGPIKKYVSYIESISTNHLTDWGLGDWVPVRSKSNITLTSSIYYYTDVCILAKAARLFGYAEDASYYNTLAQKIKEAINTSFLNKETGIYAEGTQTELAMPLYWGIVPEEDKKKVAARLHELVEKDDYHLDVGLLGSKALLSAMSDNGYAETAYKVASQDTYPSWGVLDQTRCYNST
B2: 1068 (protein, listed as Pedobacter heparinus)
chain: MINQIFKFSFFALNLLAWYSFTAKSQDLKVFDKATSWITCDKAQDQSNSWIAFRKVVQLDEKPVKALLDISVDSKYWLYINEKLVVFEGGLKRGPNPDDTYYDEADLTEYLKAGTNTIAVLLWYFGKNGFSHHSSGRAGMFFQLDMDKQGKICSDRSWKCSVVPAYLNVYSGDQPNYRLAESNVIYDARLALGDWTSASYNDKTWRNPFVVGPAGCMPWNKLVKRPIPQWKDYGIVNFNLNFPFNATGDTIKVKLPYNAQFTPYLKVEATAGKTIEMFTDNYSGGSENNVRAEYITKTGIQEYESFGWMNGHVMMFVIPKGAKVLSLGYRETGYHTTFAGSFNCNDAFYNKLWEKSSRTLYVNMRDSYMDCPDRERAQWWGDEVTEMTQSFYALDPDANLLAKKGIDELTGWQRSDGVLFSPIPAGNFDLELPVQMLTSVGYYGFWTYYYYTGDLETIRAAYPSIRKYLSLWEMDKNGLVISRTGGWNWGDWGKNVDIDLMSNAWYYLACKGYLEMSKTLNHAEEIKWAENQMSVMKKSFDTRFWTGKAYRSPDYKGQTDDRSNALAVLAGLTAPAKYPLLKDVFLTEEHSSPYMEKYVLEALFKMGYADIALERLKKRYTAMVDSELTTLWEGWKIGVNGYGGGSYNHAWSGGGLILLSRFVAGIEPASPGYETVKIAPQMGSLINCSATVSSVAGLIAVKNTFTNEKEFNQLIESPSPLKIYFPFEVYRIKKIRVNNKKLSEALMLKFKNEGKLELSKGKYKLTVNIN
B3: 999 (protein, listed as Prevotella ruminicola)
chain: MRKFLTIICVACCYASATFAQAWPQPKPEAKPGTRWWWLGSAVNQRDLQWNLQEYARAGIGAVEITPIYGVKGNDANNIAYLSPQWMQALQSVQDIARPLGIEVDMNCGTGWPFGGPHISLDQAACRAIIKDTIINGKHQYEVEIGHTKQKVKRAAPGGEGWVVDHFDRNAVAHYLDRFEQAFATSGVPYPHTFFNDSYEVYKADWTPTLFDEFQKRRGYDLRTKLPELLGKVDDGNQTLADYRETLSDMLLENFTQQWVAWAHKHGVKVRNQAHGSPANLLDLYAAVDIPEIEGFGLSEFGIKGLRTDPGKTRKNDSDVSMLKYASSAAHVMGKPFTSSETFTWLTEHFRTSLSQMKPDLDLMFTCGVNHVYFHGSCYTPQNAAWPGWKFYASVDMSPTNSIWRDAPFLMKYIERSQSFLQLGEPDNDFLVYLPVRDMWHQRDNNNTLLMQFDIHSMAKKAPQFIRSILTIDSLGYDCDYISDRQLAKVRMQDGMLVTEGGTRYKALIIPSGTTIDASLQAQINRLNAYVIRGEQAADMAKFAKAEQMKTTYGLRAIRRHTADGWHYFIVNLTPKDITGDVTLAVPFESATWFNPMNGDIQPAEVHNGQLHIALKSGESRILQTSNQPSTNITTTASGTEEITLQGPWVLSFTDESPRVEGTFKLNKLQTWETLSDSAAVTMGTGVYTTSIKLSAQQAKQHWQIDLGDVRESARVYINSQFVGCAWAVPFILDCGNTLHKGKNEIRIEVTNLPANRIAELDRKGVQWRKFNEINVVDINYKNTTYADWKPVPSGLNTTVKLVR

Assays:
Assay type in all cases: biochemical, Quillaja saponaria
[1] = Experiment 6-1: screening of rhamnosidases for derhamnosylation of saponins in treated bark extract (2%), desglucosyl-QS-17 2134 to QS-21 1988 (PAR %); conditions: TBE 2%, pH 7.5, 30 degC, 18 h; TIC peak area ratio percent, LCMS/MS; negative controls 2.719, 2.158
[2] = Experiment 6-1: screening of rhamnosidases for derhamnosylation of saponins in treated bark extract (2%), QS-17 2310 to QS-18 2164 (PAR %); conditions: TBE 2%, pH 7.5, 30 degC, 18 h; TIC peak area ratio percent, LCMS/MS; negative controls 3.061, 2.429
[3] = Experiment 6-1: specificity of rhamnosidases towards other rhamnose residues (C3 saccharide rhamnose, C28 saccharide rhamnose); conditions: TBE 2%, pH 7.5, 30 degC, 18 h; LCMS/MS; negative controls 0.18, 0.17
[4] = Experiment 6-1: screening of rhamnosidases for derhamnosylation of saponins in treated bark extract (2%), QS-17 2296 to QS-18 2150 (PAR %); conditions: TBE 2%, pH 7.5, 30 degC, 18 h; TIC peak area ratio percent of rhamnosylated starting saponin to derhamnosylated product, LCMS/MS; negative controls 4.876, 5.225

Molecule	Peak75 (PAR %) [1]	Peak57 (PAR %) [2]	ratio PP/QS-21 [3]	QS-17 (PAR %) [4]
B1	2.330%	2.933%	0.18	5.495%
B2	2.370%	3.156%	0.17	5.521%
B3	2.571%	2.714%	0.16	5.614%
